# Molecular target: ribosomal protein uS13 of the E. coli 70S ribosome (E. coli (endogenous in MG1655), UniProt P0A7S9 1-118)
# Assay: cryo-EM structure
# Settings: both partners purified
binder,measurement,value
"HigB^TAC[K95A] toxin of Mycobacterium tuberculosis (enzyme, also called HigB1) MPPPDPAAMGTWKFFRASVDGRPVFKKEFDKLPDQARAALIVLMQRYLVGDLAAGSIKPIRGDILELRWHEANNHFRVLFFRWGQHPVALTAFYANQQKTPKTKIETALDRQKIWKRAFGDTPPI",binding result,binds
